Laboratory results as given in the supplement of paper PMC9170038.

Tested on: MS2 coat protein
Experiment: apparent KD of MS2 coat protein; designed switch direction (-1 OFF switch, 1 ON switch): -1; higher = weaker reporter binding
Procedure, shortened: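 RNA switches sharing common flanks were transcribed by stalled E. coli RNA polymerase on Illumina chips. A doubling series of SNAP-549-labelled MS2 coat protein, from 0.7 or 1.5 nM to 3 µM, was applied in Tris-HCl pH 7.5 buffer with KCl, MgCl2, BSA, DTT, tRNA and Tween-20. Each step lasted 0.8–1.5 h at the bottom of the series and 10–20 min at the top. Normalised cluster fluorescence was curve-fitted, giving apparent KD as the per-design median over clusters.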

[1] = Eterna round: R95, input ligand: FMN 200 uM
[2] = Eterna round: R95, input ligand: microRNA oligo, concentration not stated
[3] = Eterna round: R95, input ligand: none
[4] = input ligand: microRNA oligo, concentration not stated

| Sequence | apparent KD of MS2 coat protein (input ligand: FMN 200 uM) [nM] | apparent KD of MS2 coat protein (input ligand: none) [nM] | apparent KD of MS2 coat protein [1] [nM] | apparent KD of MS2 coat protein [2] [nM] | apparent KD of MS2 coat protein [3] [nM] | apparent KD of MS2 coat protein [4] [nM] |
| --- | --- | --- | --- | --- | --- | --- |
| ACAAGCUUUUUCAUAUCUUACAUGAGGAUCACCCAUGUUUUUGCAAUUAUGUUUGGGCUCUUUUGUGCUCGUCUUAU [JR_STOV1_Sub049] (Eterna round: R97, puzzle: Sensor, turn-off variant 1) | 14.9 | 15.4 |  |  |  |  |
| AAAUGACAUUAGGAUAUGUAACGCGGUUGCCGCACAGAAGGGAUGACUUGAGGAUCACCCAAGUGACCCAAGGA [Tixebion] (Eterna round: R97, puzzle: Exclusion 6) | 26.4 | 28.2 |  |  |  |  |
| ACUUCACAUGAGGAUCACCCAUGUGAGGAUAUCGUCGAGGAUGUAAUGCCAUCCGUGGCGAGAAGGCGCAUGGG [Exclusion 1 (Mod1.1 solution 40 by Eternabot)] (Eterna round: R97, puzzle: Exclusion 1) | 28.5 | 79.8 |  |  |  |  |
| UUAUAAACAUAGGAUAUCGAAUAAAUUAUUUAACGAGAAGGAUGAACAUGAGGAUCACCCAUGUGGUAUCAUGG [Mat - Exclusion 6 - JL Mod - D30] (puzzle: Exclusion 6) |  |  | 170 | 228 | 398 |  |
| AAGUCAACAUGAGGAUCACCCAUGUCCAAGUUGAUGUCCUGUGAGGAUAUGUGUAAACGGCCGGCACAGAAGGCACAAGACGCG [Eternabot solution 5] (Eterna round: R96, puzzle: Exclusion NG 3) | 32.3 | 34.5 |  |  |  | 30.4 |
| CUGAUGUUAGGAUAUCAGGCGCCCGCCACUGGCAAAGCGCAUGAGAAGGGACAUGAGGAUCACCCAUGUAGUAA [Ussoisrebe] (puzzle: Exclusion 4) |  |  |  | 27.7 |  |  |
| UGAUCUUUUGUUAGGAUAUGCUGGCUGAAAAGUCAGCAGAAGGGACAUGAGGAUCACCCAUGUUCUCUCUUUUU [Magic-09] (puzzle: Brourd's mod of Exclusion 4) |  |  |  | 10.3 |  |  |
| CAGAAUUGAGGAUAUGAUCAAUUUAACAUGAGGAUCACCCAUGUAUGGGAAUGAUUCUGAUCAGAAGGCGAUUCUU [Exclusion 5: 1:a] (puzzle: Exclusion 5) |  |  | 257 | 285 | 461 |  |
| AAAUGAGAGCAGGAUAUCUUAUAAAUGUAUGAAAGAGAAGGGCUCACAUGAGGAUCACCCAUGUGGUCCUAGAU [jl-ex6-4.77 jandersonlee mod] (Eterna round: R97, puzzle: Exclusion 6) | 673 | 32.7 |  |  |  |  |
| ACGCAUUGCCUUUGGUAGUGCGUUACAUGAGGAUCACCCAUGUAGGAUAUGGUAGGCUUUGCUUACCAGAAGGACAUGAUAAUU [JL ENG3 1.02] (Eterna round: R96, puzzle: Exclusion NG 3) | 195 | 37.4 |  |  |  | 29.1 |
| CAGUACUGAGGAUAUACAUGAGGAUCACCCAUGUGCUUUAGCUAGGAUACUAGCAUCAGUAGAAGGCAGUACUG [Fiskers Ex 3 828 mod 11] (puzzle: Exclusion 3) |  |  |  | 12.9 |  |  |
| GAGAGCAACGUCAGGAUAUUUAACCAAAACGCGGUAGAGAAGGGACAUGAGGAUCACCCAUGUGACUUCGGGCA [Eternabot (L1) Solution 83] (Eterna round: R97, puzzle: Brourd's mod of Exclusion 4) | 15.5 | 16.8 |  |  |  |  |
| ACGCCUCCUGUCAGGAUAUGCAUCGGGCUUCCGCAGCAGAAGGGACAUGAGGAUCACCCAUGUCAAAUAAAAUC [Onsoqule] (puzzle: Brourd's mod of Exclusion 4) |  |  |  | 16.3 |  |  |
| AGAGAGUCAGGAUAUCGAAGGUAGAGAAAAGGAGAGUGGUACGAGAAGGGACAUGAGGAUCACCCAUGUAGGUG [JR_Exclusion4)Sub013] (puzzle: Exclusion 4) |  |  | 343 | 431 | 441 |  |
| GGCGUGUAUUAGGAUAUUGGAGGGAGGGAGGGCUAAGAAGGAGUAACAUGAGGAUCACCCAUGUAGAGGAAGGG [RHig 2] (Eterna round: R97, puzzle: Exclusion 6) | 63.1 | 95.3 |  |  |  |  |
| UCGUUCCGUGUAGGAUAUUGGCCUCCCUUGGGCCGAGAAGGACAUGAGGAUCACCCAUGUAUGUUAUUAUCGCGCGUGGCGCAU [Design 88] (Eterna round: R96, puzzle: Exclusion NG 1) | 126 | 18.4 |  |  |  | 13.8 |
| UCUCAACAUGAGGAUCACCCAUGUGAGGAUAUGAUGCAGCAGUGGUCUACGCUGUGCAUCAGAAGGCACAUGUG (puzzle: Exclusion 1) |  |  |  | 119 |  |  |

| Sequence | apparent KD of MS2 coat protein (input ligand: FMN 200 uM) [nM] | apparent KD of MS2 coat protein (input ligand: none) [nM] | apparent KD of MS2 coat protein [1] [nM] | apparent KD of MS2 coat protein [2] [nM] | apparent KD of MS2 coat protein [3] [nM] | apparent KD of MS2 coat protein [4] [nM] |
| --- | --- | --- | --- | --- | --- | --- |
| UUAAUGGUUGUGAGGAUAUCGGAUAGAUAGAUAUUCGAGAAGGCACAUGAGGAUCACCCAUGUGUGAUUAGAAA [JR_BMEx4_Sub049] (Eterna round: R97, puzzle: Brourd's mod of Exclusion 4) | 260 | 24.6 |  |  |  |  |
| CCUCUACAUGAGGAUCACCCAUGUGAGGAUAUCUCGGAGCAGCCAAUUAAAGCGCUCCAGAGAAGGCACGUGUA [Inesraar] (puzzle: Exclusion 1) |  |  |  | 19.4 |  |  |
| AGCGUGGCUCAGGAUAUCAGCCCUGUGGAGUUCUGAGAAGGGAGCACAUGAGGAUCACCCAUGUGAAAGGGUAC [Useratarin] (puzzle: Exclusion 6) |  |  | 103 | 24.7 | 29.7 |  |
| CCAGGCUGUGUGAGGAUAUGCUGGUCCUUGGAUCAGCAGAAGGCACAUGAGGAUCACCCAUGUGAAGAGCUUGG [JL bmx4 3.23] (puzzle: Brourd's mod of Exclusion 4) |  |  |  | 15.6 |  |  |
| AGUAGUAGUAUCCGAUCCUACAUGAGGAUCACCCAUGUGGCUAGACGUGCACGCGAUGCUCGUCAGACUACCAGAUG [salish99_TOv1_r3_038] (puzzle: Sensor v3, turn-off variant 1) |  |  | 404 | 269 | 506 |  |
| GUGUACGGAGGAUAUAUAUGGGCAGCAUACGCUGCAGCUUCACAUGAGGAUCACCCAUGUAGAAGGCUGUACAC [Mat - Exclusion 2 - Mod of Hyphema - D100] (Eterna round: R96, puzzle: Exclusion 2) | 223 | 24.8 |  |  |  | 18.5 |
| AGUUCACAUGAGGAUCACCCAUGUGAGGAUAUGGAUUCGCUGGCCGUAGCCAGUGGAUCCAGAAGGCGCGUGAU [JL-ex1-4.15] (Eterna round: R97, puzzle: Exclusion 1) | 55.7 | 65.1 |  |  |  |  |
| ACAAGCUUUUGCUCGUCUUACAUGAGGAUCACCCAUGUCGGGUGCUUGCUUACGUCCAGCAUCUGGACCGUAGCAGU [-24.6, -43.1 kcal, 19% A] (Eterna round: R97, puzzle: Sensor, turn-off variant 1) | 142 | 165 |  |  |  |  |
| CCCGCGCGUGUAGGAUAUGGCUCGGUGUCUGGGCCAGAAGGACAUGAGGAUCACCCAUGUCUGCGGGUGUGGGCGUGGUUUGGG [-36, -33 kcal A 14%] (Eterna round: R96, puzzle: Exclusion NG 1) | 91.8 | 27.2 |  |  |  | 18.6 |
| GCGUUCUGAGGAUAUACAUGAGGAUCACCCAUGUUGAGAAUUAGGUAUAAGGGAUUUUGUAGAAGGCAGAGUGC [JR_Ex3_Sub072] (Eterna round: R97, puzzle: Exclusion 3) | 228 | 59.9 |  |  |  |  |
| GUUAGUUAAGGAUAUACUGGGAGCUGCGGCGUCUCGCCGCAACAUGAGGAUCACCCAUGUAGAAGGUGACCGUU [JL ViennaUCT Enbibi mod 6] (puzzle: Exclusion 2) |  |  |  | 283 |  |  |
| AGUAUGCGGCAGGAUAUCCAUCCGCGGAAAGGUGGAGAAGGGCUGACAUGAGGAUCACCCAUGUGCGUCCUGUA [salish99_ex6_r4_029] (Eterna round: R97, puzzle: Exclusion 6) | 33.5 | 20.4 |  |  |  |  |
| CUCGUGCAGCUUUGCUGUACGAGUACAUGAGGAUCACCCAUGUAGGAUAUGGUACGCUUUGCGUGCCAGAAGGACGUGUGUUUG [JL EXNG3 1.40] (Eterna round: R96, puzzle: Exclusion NG 3) | 221 | 39.4 |  |  |  | 27.6 |
| AGUACUAACACGAAAGUGUUAGUACUAUAAGCUUGUGAAACAUGAGGAUCACCCAUGUCCUCAUAAGCUCGUCUUAU [Mat - Sensor v3 - Turn-off var 2 - D102] (puzzle: Sensor v3, turn-off variant 2) |  |  | 17.3 | 780 | 17 |  |
| AAUUCUAGGGUCAGACGCACAAGCUUUUUGCUCGUUUUAACAUGAGGAUCACCCAUGUCUAGUGGAUCUGAUCGGGC [JL ViennaUCT Isreen mod 8] (Eterna round: R96, puzzle: Sensor v3, turn-off variant 2) | 25.3 | 33.3 |  |  |  | 58.1 |
| GCGAGCAGACGGAGAUCCAACAUGAGGAUCACCCAUGUCUCGCAAGCUUUUUGCUUGUCUUAUCCUCCUCUGUUUAG [Design #8] (Eterna round: R97, puzzle: Sensor, turn-off variant 1) | 81.3 | 80.4 |  |  |  |  |
| CCUUAGUUAGGAUAUAUUAAGGCCUCUGUGAGCGCAGGGCAAUAGAAGGAACAUGAGGAUCACCCAUGUAUGGA [Eternabot (L2) Solution 98] (Eterna round: R97, puzzle: Exclusion 4) | 38.6 | 29.7 |  |  |  |  |
